Article PMC3464217, “Anti-HIV Double Variable Domain Immunoglobulins Binding Both gp41 and gp120 for Targeted Delivery of Immunoconjugates” (PLoS ONE, 2012)

Target: T1, recombinant gp160 (HIV-1 group M subtype B, IIIB (clone …, UniProt P03375, strain))
T1 construct: also called rgp160; source: bought: Quality Biological; recombinant, expressed in mammalian cells
Assay: SPR
Settings: both partners purified

B1: 7B2 (antibody, V domains shown)
VH: QVQLVQSGGGVFKPGGSLRLSCEASGFTFTEYYMTWVRQAPGKGLEWLAYISKNGEYSKYSPSSNGRFTISRDNAKNSVFLQLDRLSADDTAVYYCARADGLTYFSELLQYIFDLWGQGARVTVSS
VL: DIVMTQSPDSLAVSPGERATIHCKSSQTLLYSSNNRHSIAWYQQRPGQPPKLLLYWASMRLSGVPDRFSGSGSGTDFTLTINNLQAEDVAIYYCHQYSSHPPTFGHGTRVELR
notes: also called anti-gp41 Ab (7B2); 7B2 parent; source: 293F cells, transiently transfected; purified from supernatant on Protein A agarose
binding result: binds
